Values quoted from earlier work as cited in paper PMC12692374.

Biological target: HIV-1 capsid (Human immunodeficiency virus 1) (UniProt O93182)
Sequence (O93182 133-363): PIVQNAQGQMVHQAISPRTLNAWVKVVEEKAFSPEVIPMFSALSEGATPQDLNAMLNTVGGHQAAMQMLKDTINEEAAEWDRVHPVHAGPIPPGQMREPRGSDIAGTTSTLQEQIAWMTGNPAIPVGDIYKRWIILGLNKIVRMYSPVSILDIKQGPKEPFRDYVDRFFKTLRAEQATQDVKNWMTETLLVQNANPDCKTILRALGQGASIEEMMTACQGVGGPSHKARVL

Chain of NONO (Q15233 whole entry): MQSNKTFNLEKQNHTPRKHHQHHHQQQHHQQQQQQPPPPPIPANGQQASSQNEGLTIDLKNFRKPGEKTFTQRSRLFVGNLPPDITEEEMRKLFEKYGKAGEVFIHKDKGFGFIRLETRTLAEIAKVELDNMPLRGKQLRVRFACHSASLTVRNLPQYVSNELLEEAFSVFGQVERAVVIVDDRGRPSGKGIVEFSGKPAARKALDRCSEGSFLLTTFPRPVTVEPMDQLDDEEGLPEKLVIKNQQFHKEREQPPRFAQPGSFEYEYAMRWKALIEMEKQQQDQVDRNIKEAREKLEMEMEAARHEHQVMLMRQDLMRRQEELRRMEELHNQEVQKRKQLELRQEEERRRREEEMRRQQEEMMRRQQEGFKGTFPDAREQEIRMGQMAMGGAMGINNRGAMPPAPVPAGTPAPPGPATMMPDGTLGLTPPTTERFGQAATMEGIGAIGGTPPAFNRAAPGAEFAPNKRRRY

Substance: NONO (from UniProt Q15233)
- Kd: 9.15 µM
